Measured values from US20200262877A1, “ION CHANNEL-BINDING PEPTIDES AND METHODS OF USE THEREOF” (priority 2017, published 2020).

Tests used:
[1] = biological target: T1, α3β4 (Homo sapiens, UniProt P30926+P32297); experiment: Ion channel panel (IonWorks Barracuda): α3β4; assay type: cell-based; settings: 100% = no change, <100% = inhibition
T1 construct: host or cells: HEK293 or CHO
Outline: (§1)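 Transfected HEK293 or CHO cells were exposed for at least 5 min to peptides at 200 nM and 20 μM final, tested in duplicate, in HEPES-buffered physiological saline. Activation was taken as peptide-plus-agonist current over control current ×100, and inhibition as 1 minus that ratio ×100. Each channel's control was its own reference compound.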

[2] = biological target: T2, α4β2 (Homo sapiens, UniProt P17787+P43681); experiment: Ion channel panel (IonWorks Barracuda): α4β2; assay type: cell-based; settings: 100% = no change, <100% = inhibition
T2 construct: host or cells: HEK293 or CHO
Outline: as §1

[3] = biological target: T3, 5HT3a (Homo sapiens, UniProt P46098); experiment: Ion channel panel (IonWorks Barracuda): 5HT3a; assay type: cell-based
T3 construct: host or cells: HEK293 or CHO
T3 sequence (P46098 whole entry, looked up): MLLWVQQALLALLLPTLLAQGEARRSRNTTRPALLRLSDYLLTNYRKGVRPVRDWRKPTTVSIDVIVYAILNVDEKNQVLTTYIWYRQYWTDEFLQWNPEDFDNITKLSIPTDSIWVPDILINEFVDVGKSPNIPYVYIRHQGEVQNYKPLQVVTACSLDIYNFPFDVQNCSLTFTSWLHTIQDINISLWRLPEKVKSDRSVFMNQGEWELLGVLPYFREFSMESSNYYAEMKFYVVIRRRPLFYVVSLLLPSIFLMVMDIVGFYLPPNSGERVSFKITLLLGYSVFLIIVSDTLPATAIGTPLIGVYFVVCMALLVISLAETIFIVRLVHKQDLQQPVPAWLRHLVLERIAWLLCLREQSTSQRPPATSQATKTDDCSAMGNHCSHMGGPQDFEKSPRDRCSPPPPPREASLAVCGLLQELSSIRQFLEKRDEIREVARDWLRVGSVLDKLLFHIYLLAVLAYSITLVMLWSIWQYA
Outline: as §1

[4] = biological target: T4, Kv1.2 (Homo sapiens, UniProt P16389); experiment: cell-based; assay type: cell-based; settings: 100% = no change, <100% = inhibition
T4 construct: host or cells: HEK293 or CHO
Outline: as §1

[5] = biological target: T5, Kv1.1 (Homo sapiens, UniProt Q09470); experiment: cell-based; assay type: cell-based; settings: 100% = no change, <100% = inhibition
T5 construct: host or cells: HEK293 or CHO
Outline: as §1

[6] = biological target: T6, Kv1.3 (Homo sapiens, UniProt P22001); experiment: cell-based; assay type: cell-based; settings: 100% = no change, <100% = inhibition
T6 construct: host or cells: HEK293 or CHO
Outline: as §1

[7] = biological target: Nav1.5 (Homo sapiens, UniProt Q14524); experiment: in vitro; settings: 100% = no change; for Activity of Nav1.5 with peptide, expressed as a percentage of the reference compound: peptide at 0.2 μM; for Activity of Nav1.5 with peptide (percentage of the reference compound): peptide at 20 μM
Nav1.5, sequence (Q14524 whole entry): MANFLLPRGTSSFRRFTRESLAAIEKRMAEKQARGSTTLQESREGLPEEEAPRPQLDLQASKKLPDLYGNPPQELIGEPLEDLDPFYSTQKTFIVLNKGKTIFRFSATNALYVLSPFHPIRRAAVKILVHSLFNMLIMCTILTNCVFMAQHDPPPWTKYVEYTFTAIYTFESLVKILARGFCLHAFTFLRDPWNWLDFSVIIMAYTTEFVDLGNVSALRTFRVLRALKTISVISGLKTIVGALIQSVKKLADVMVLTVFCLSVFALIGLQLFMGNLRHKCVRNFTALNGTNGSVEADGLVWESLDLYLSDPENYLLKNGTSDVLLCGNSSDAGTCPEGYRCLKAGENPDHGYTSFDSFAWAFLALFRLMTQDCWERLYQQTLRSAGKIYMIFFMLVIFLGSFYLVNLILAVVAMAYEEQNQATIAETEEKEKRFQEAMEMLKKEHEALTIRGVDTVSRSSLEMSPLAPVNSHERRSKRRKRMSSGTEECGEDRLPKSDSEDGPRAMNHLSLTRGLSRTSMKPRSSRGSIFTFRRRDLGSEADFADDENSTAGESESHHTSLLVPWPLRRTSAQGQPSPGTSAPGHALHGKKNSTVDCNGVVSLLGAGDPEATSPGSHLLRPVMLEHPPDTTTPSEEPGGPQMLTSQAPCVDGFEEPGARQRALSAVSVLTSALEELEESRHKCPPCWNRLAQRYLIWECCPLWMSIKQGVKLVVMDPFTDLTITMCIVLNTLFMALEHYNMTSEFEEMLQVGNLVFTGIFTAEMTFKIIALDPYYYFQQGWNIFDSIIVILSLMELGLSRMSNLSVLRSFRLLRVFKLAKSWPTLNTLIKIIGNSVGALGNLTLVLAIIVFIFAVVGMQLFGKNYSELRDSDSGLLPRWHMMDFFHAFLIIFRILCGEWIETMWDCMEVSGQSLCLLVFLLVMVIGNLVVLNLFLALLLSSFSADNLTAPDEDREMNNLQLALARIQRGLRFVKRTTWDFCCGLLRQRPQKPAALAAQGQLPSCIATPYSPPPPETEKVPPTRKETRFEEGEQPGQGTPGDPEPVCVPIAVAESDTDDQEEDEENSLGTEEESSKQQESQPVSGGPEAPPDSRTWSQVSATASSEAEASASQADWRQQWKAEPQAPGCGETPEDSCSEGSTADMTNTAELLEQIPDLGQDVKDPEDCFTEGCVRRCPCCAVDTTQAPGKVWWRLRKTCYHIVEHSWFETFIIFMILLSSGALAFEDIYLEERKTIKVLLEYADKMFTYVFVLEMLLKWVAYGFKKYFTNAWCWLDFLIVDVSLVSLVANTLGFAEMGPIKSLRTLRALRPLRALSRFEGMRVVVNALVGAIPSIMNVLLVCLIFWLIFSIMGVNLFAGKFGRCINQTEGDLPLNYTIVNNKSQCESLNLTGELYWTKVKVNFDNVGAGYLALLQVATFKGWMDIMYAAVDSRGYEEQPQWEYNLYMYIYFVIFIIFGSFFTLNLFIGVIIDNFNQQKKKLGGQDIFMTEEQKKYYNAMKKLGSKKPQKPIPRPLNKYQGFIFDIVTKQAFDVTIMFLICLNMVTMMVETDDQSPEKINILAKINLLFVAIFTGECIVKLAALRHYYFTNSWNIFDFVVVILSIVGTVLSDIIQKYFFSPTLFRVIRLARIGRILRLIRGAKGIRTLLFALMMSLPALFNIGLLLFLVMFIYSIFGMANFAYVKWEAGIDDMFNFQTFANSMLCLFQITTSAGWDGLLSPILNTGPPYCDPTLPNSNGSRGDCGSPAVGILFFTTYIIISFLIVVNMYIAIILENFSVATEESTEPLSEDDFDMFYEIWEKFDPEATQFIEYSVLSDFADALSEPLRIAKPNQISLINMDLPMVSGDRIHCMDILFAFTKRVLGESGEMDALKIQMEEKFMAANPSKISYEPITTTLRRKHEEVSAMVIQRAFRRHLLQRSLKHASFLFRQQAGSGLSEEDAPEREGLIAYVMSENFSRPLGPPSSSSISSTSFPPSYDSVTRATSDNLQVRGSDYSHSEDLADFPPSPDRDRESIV
Outline: as §1

[8] = biological target: hERG (Homo sapiens, UniProt Q12809); experiment: in vitro; settings: 100% = no change, <100% = inhibition
Outline: as §1

[9] = biological target: T7, NR2B (Homo sapiens, UniProt Q13224); experiment: Ion channel panel (IonWorks Barracuda): NR2B; assay type: cell-based; settings: 100% = no change, <100% = inhibition
T7 construct: host or cells: HEK293 or CHO
Outline: as §1

[10] = biological target: T8, TRPV1 (Homo sapiens, UniProt Q8NER1); experiment: Ion channel panel (IonWorks Barracuda): TRPV1; assay type: cell-based; settings: 100% = no change, <100% = inhibition
T8 construct: host or cells: HEK293 or CHO
Outline: as §1

[11] = biological target: T9, Cav2.1 (Homo sapiens, UniProt O00555); experiment: cell-based; settings: 100% = no change, <100% = inhibition
T9 construct: host or cells: HEK293 or CHO
Outline: as §1

[12] = biological target: T10, Kv2.1 (Homo sapiens, UniProt Q14721); experiment: cell-based; settings: 100% = no change, <100% = inhibition
T10 construct: host or cells: HEK293 or CHO
Outline: as §1

[13] = biological target: T11, Cav2.2 (Homo sapiens, UniProt Q00975); experiment: cell-based; settings: 100% = no change, <100% = inhibition
T11 construct: host or cells: HEK293 or CHO
Outline: as §1

[14] = biological target: T12, NR2A (Homo sapiens, UniProt Q12879); experiment: Ion channel panel (IonWorks Barracuda): NR2A; assay type: cell-based; settings: 100% = no change, <100% = inhibition
T12 construct: host or cells: HEK293 or CHO
Outline: as §1

[15] = biological target: T13, Nav1.7 (Homo sapiens, UniProt Q15858); experiment: cell-based; assay type: cell-based; settings: 100% = no change; for Activity of Nav1.7 with peptide, expressed as a percentage of the reference compound: peptide at 0.2 μM; for Activity of Nav1.7 with peptide (percentage of the reference compound): peptide at 20 μM
T13 construct: host or cells: HEK293 or CHO
T13 sequence (Q15858 whole entry): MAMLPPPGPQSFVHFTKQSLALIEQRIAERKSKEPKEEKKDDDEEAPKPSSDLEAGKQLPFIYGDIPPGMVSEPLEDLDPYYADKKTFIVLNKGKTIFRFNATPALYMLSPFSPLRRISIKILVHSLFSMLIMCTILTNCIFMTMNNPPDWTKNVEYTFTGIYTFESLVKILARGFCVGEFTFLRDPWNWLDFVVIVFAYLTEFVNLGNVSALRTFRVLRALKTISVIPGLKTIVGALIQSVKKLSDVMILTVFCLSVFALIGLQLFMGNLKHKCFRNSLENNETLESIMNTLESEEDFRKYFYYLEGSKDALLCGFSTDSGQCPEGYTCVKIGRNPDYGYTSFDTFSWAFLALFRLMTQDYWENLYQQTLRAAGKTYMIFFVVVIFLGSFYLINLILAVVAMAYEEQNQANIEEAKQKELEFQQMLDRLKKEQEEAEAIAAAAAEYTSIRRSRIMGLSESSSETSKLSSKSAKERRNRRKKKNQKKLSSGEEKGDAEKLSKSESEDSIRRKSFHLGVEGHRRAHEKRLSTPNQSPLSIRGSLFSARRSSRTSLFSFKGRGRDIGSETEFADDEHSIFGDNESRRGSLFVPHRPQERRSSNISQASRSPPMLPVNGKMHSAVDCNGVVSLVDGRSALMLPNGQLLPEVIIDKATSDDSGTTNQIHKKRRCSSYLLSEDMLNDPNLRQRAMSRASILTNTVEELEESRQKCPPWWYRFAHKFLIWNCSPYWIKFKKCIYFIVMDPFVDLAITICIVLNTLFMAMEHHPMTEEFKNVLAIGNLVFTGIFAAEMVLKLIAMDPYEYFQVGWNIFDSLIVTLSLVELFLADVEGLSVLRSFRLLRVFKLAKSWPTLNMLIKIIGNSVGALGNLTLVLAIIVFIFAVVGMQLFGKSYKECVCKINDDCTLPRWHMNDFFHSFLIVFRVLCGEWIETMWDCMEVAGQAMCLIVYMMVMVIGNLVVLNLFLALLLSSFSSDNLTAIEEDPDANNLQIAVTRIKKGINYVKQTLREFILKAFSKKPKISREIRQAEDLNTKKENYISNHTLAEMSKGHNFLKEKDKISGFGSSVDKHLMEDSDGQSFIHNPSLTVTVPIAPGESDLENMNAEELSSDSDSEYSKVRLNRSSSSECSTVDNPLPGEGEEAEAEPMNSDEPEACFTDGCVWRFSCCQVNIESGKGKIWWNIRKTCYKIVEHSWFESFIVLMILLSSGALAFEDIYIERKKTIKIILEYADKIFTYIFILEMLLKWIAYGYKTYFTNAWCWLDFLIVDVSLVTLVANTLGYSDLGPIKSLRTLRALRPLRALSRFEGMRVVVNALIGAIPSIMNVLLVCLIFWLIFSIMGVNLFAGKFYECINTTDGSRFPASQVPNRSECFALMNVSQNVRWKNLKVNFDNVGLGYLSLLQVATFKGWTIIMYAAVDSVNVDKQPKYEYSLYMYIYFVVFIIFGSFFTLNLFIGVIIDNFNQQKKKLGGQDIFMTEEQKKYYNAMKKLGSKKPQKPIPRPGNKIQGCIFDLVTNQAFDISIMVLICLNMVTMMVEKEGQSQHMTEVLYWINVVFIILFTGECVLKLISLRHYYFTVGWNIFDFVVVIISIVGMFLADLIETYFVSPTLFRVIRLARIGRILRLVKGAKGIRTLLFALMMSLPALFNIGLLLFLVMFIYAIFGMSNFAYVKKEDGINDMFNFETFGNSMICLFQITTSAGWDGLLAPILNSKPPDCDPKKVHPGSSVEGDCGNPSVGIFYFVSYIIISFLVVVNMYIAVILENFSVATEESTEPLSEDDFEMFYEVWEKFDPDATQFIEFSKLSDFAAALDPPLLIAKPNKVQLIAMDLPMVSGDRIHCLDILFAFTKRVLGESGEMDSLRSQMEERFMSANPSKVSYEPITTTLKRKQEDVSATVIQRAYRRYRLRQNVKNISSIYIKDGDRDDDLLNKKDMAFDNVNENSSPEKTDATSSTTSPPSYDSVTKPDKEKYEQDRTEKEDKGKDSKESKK

[16] = tested on: GABA; experiment: Ion channel panel (IonWorks Barracuda): GABA; assay type: cell-based; settings: 100% = no change, <100% = inhibition
Outline: as §1

[17] = biological target: T14, TRPA1 (Homo sapiens, UniProt O75762); experiment: Ion channel panel (IonWorks Barracuda): TRPA1; assay type: cell-based; settings: 100% = no change, <100% = inhibition
T14 construct: host or cells: HEK293 or CHO
Outline: as §1

[18] = biological target: T15, Kir2.1 (Homo sapiens, UniProt P63252); experiment: Ion channel panel (IonWorks Barracuda): Kir2.1; assay type: cell-based; settings: 100% = no change, <100% = inhibition
T15 construct: host or cells: HEK293 or CHO
Outline: as §1

[19] = first of two Nav1.5 columns (probably TP1)
[20] = second of two Nav1.5 columns (probably TP2)
[21] = first of two Nav1.7 columns (probably TP1)
[22] = second of two Nav1.7 columns (probably TP2)

T1 sequence (P30926 22-498): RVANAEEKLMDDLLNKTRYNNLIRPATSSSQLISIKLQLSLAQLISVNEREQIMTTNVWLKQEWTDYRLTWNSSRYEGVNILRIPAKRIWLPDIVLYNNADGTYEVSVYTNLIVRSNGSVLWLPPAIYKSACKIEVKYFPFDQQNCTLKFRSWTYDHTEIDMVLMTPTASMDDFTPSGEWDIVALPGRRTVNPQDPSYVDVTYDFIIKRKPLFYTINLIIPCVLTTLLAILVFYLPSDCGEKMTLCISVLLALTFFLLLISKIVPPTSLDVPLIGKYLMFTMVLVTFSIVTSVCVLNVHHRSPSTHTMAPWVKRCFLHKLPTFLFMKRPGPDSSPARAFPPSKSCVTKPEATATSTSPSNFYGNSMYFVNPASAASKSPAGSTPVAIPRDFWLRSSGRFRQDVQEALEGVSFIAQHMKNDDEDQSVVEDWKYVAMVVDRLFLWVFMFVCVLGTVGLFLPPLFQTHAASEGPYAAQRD
T1 sequence (P32297 32-505): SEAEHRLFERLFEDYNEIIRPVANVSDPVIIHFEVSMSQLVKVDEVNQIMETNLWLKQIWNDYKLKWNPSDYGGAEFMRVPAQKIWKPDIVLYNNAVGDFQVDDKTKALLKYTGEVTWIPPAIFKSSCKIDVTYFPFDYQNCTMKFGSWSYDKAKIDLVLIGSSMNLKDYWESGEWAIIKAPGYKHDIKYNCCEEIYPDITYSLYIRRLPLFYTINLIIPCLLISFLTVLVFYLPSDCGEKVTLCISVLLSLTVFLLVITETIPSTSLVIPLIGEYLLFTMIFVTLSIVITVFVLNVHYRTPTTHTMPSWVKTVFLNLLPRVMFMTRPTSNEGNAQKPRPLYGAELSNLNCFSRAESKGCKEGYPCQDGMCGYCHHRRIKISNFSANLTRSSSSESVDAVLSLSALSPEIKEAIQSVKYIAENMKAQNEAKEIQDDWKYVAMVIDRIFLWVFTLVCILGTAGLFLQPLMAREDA

Substance: 25 (GSACLAEYQKCEGSTVPCCPGLSCSAGRFRKTKLCTK) [compound 25]
- Activity of a3b4 with peptide, expressed as a percentage of the reference compound ([1]; peptide at 0.2 μM): 105%
- Activity of a3b4 with peptide (percentage of the reference compound) ([1]; peptide at 20 μM): 91%
- Activity of a4b2 with peptide, expressed as a percentage of the reference compound ([2]; peptide at 0.2 μM): 73%
- Activity of a4b2 with peptide (percentage of the reference compound) ([2]; peptide at 20 μM): 75%
- Activity of 5HT3a with peptide (percentage of the reference compound) [3]: 94%
- Activity of 5HT3a with peptide, expressed as a percentage of the reference compound [3]: 82%
- Activity of Kv1.2 with peptide, expressed as a percentage of the reference compound ([4]; peptide at 0.2 μM): 72%
- Activity of Kv1.2 with peptide (percentage of the reference compound) ([4]; peptide at 20 μM): 85%
- Activity of Kv1.1 with peptide, expressed as a percentage of the reference compound ([5]; peptide at 0.2 μM): 69%
- Activity of Kv1.1 with peptide (percentage of the reference compound) ([5]; peptide at 20 μM): 77%
- Activity of Kv1.3 with peptide, expressed as a percentage of the reference compound ([6]; peptide at 0.2 μM): 74%
- Activity of Kv1.3 with peptide (percentage of the reference compound) ([6]; peptide at 20 μM): 87%
- Activity of Nav1.5 with peptide, expressed as a percentage of the reference compound [7, 19]: 76%
- Activity of Nav1.5 with peptide, expressed as a percentage of the reference compound [7, 20]: 74%
- Activity of Nav1.5 with peptide (percentage of the reference compound) [7, 19]: 88%
- Activity of Nav1.5 with peptide (percentage of the reference compound) [7, 20]: 87%
- Activity of hERG with peptide, expressed as a percentage of the reference compound ([8]; peptide at 0.2 μM): 76%
- Activity of hERG with peptide (percentage of the reference compound) ([8]; peptide at 20 μM): 79%
- Activity of NR2B with peptide, expressed as a percentage of the reference compound ([9]; peptide at 0.2 μM): 99%
- Activity of NR2B with peptide (percentage of the reference compound) ([9]; peptide at 20 μM): 94%
- Activity of TRPV1 with peptide, expressed as a percentage of the reference compound ([10]; peptide at 0.2 μM): 117%
- Activity of TRPV1 with peptide (percentage of the reference compound) ([10]; peptide at 20 μM): 113%
- Activity of Cav2.1 with peptide, expressed as a percentage of the reference compound ([11]; peptide at 0.2 μM): 89%
- Activity of Cav2.1 with peptide (percentage of the reference compound) ([11]; peptide at 20 μM): 109%
- Activity of Kv2.1 with peptide, expressed as a percentage of the reference compound ([12]; peptide at 0.2 μM): 88%
- Activity of Kv2.1 with peptide (percentage of the reference compound) ([12]; peptide at 20 μM): 107%
- Activity of Cav2.2 with peptide, expressed as a percentage of the reference compound ([13]; peptide at 0.2 μM): 111%
- Activity of Cav2.2 with peptide (percentage of the reference compound) ([13]; peptide at 20 μM): 111%
- Activity of NR2A with peptide, expressed as a percentage of the reference compound ([14]; peptide at 0.2 μM): 94%
- Activity of NR2A with peptide (percentage of the reference compound) ([14]; peptide at 20 μM): 106%
- Activity of Nav1.7 with peptide, expressed as a percentage of the reference compound [15, 21]: 66%
- Activity of Nav1.7 with peptide, expressed as a percentage of the reference compound [15, 22]: 54%
- Activity of Nav1.7 with peptide (percentage of the reference compound) [15, 21]: 90%
- Activity of Nav1.7 with peptide (percentage of the reference compound) [15, 22]: 83%
- Activity of GABA with peptide, expressed as a percentage of the reference compound ([16]; peptide at 0.2 μM): 111%
- Activity of GABA with peptide (percentage of the reference compound) ([16]; peptide at 20 μM): 98%
- Activity of TRPA1 with peptide, expressed as a percentage of the reference compound ([17]; peptide at 0.2 μM): 124%
- Activity of TRPA1 with peptide (percentage of the reference compound) ([17]; peptide at 20 μM): 129%
- Activity of Kir2.1 with peptide, expressed as a percentage of the reference compound ([18]; peptide at 0.2 μM): 79%
- Activity of Kir2.1 with peptide (percentage of the reference compound) ([18]; peptide at 20 μM): 98%
